In paper doi:10.1101/2025.10.25.684504:
Blank lines part the entries; values can stand above or below the substance they belong to.

Legend:
Assay in all cases: cryo-EM structure
[1] = target: Actinomyces procaprae Csm6 (ApCsm6), wild type (Actinomyces procaprae)
[2] = target: ApCsm6 H369A (Actinomyces procaprae)
[3] = target: ApCsm6 R723A (Actinomyces procaprae)

- stoichiometry N [1]: 4
Substance: Actinomyces procaprae Csm6 (ApCsm6), wild type (enzyme)

- stoichiometry N [2]: 4
Substance: ApCsm6 H369A (enzyme)

- stoichiometry N [3]: 4
Substance: ApCsm6 R723A (enzyme)
